Measurements taken from publication PMC12231599, “Elucidation of multiple high-resolution states of human MutSβ by cryo-EM reveals interplay between ATP/ADP binding and heteroduplex DNA recognition”.

Columns and labels:
[1] = biological target: T1, MSH2 (MutSβ subunit);MSH3 (MutSβ subunit) (Homo sapiens;Homo sapiens, UniProt P43246;P20585 1-934;1-1137, |); assay: SPR (steady state); no ATP; 5 mM Mg2+; SPR: 25 mM HEPES pH 7.5, 150 mM KCl, 5 mM MgCl2, 1 mM DTT, 0.05% Tween, 0.05% BSA, 25 C; FRET: 50 mM HEPES pH 7.0, 200 mM NaCl, 1 mM MgCl2, 1 mM DTT, 0.05% Tween-20, RT; conditions: protein: recombinant;recombinant; tags: none;none; copies: 1;1; label: 5' biotin; blunt
[2] = biological target: T1, MSH2 (MutSβ subunit);MSH3 (MutSβ …); assay: FRET (DNA bending); no ATP; 100 nM protein; SPR: 25 mM HEPES pH 7.5, 150 mM KCl, 5 mM MgCl2, 1 mM DTT, 0.05% Tween, 0.05% BSA, 25 C; FRET: 50 mM HEPES pH 7.0, 200 mM NaCl, 1 mM MgCl2, 1 mM DTT, 0.05% Tween-20, RT; conditions: protein: recombinant;recombinant, tags: none;none, copies: 1;1, label: Cy5 strand 1, Cy3 strand 2, 5' digoxigenin, blunt
[3] = biological target: T1, MSH2 (MutSβ subunit);MSH3 (MutSβ …); assay: SPR (steady state); 5 mM Mg2+; no ATP; SPR: 25 mM HEPES pH 7.5, 150 mM KCl, 5 mM MgCl2, 1 mM DTT, 0.05% Tween, 0.05% BSA, 25 C; FRET: 50 mM HEPES pH 7.0, 200 mM NaCl, 1 mM MgCl2, 1 mM DTT, 0.05% Tween-20, RT; conditions: protein: recombinant;recombinant; tags: none;none; copies: 1;1; label: 5' biotin; blunt, (CAG)2 6-nt extrahelical loop in strand 1
[4] = biological target: T1, MSH2 (MutSβ subunit);MSH3 (MutSβ …); assay: SPR (kinetic, preferred by authors); 5 mM Mg2+; no ATP; SPR: 25 mM HEPES pH 7.5, 150 mM KCl, 5 mM MgCl2, 1 mM DTT, 0.05% Tween, 0.05% BSA, 25 C; FRET: 50 mM HEPES pH 7.0, 200 mM NaCl, 1 mM MgCl2, 1 mM DTT, 0.05% Tween-20, RT; conditions: protein: recombinant;recombinant; tags: none;none; copies: 1;1; label: 5' biotin; blunt, (CAG)2 6-nt extrahelical loop in strand 1

B1: 61 bp homoduplex, biotinylated (SPR) (dsDNA)
DNA 1: CTGAAGCTTAGCTTAGGATCATCGAGGATCAGCTCGGTGCAATTCAGCGGTACCCAATTC
DNA 2: GAATTGGGTACCGCTGAATTGCACCGAGCTGATCCTCGATGATCCTAAGCTAAGCTTCAG
[1]
  Kd: 3.32 nM

B2: 70 bp (CAG)1 loop DNA (FRET) (dsDNA)
DNA 1: CACACGTTCCGAGATATCCTAGCAAGTGATCAGCGTCTATGTAGCTCAAGAGTTCGACTCAGCCTACACCGAG
DNA 2: CTCGGTGTAGGCTGAGTCGAACTCTTGAGCTACATAGACGATCACTTGCTAGGATATCTCGGAACGTGTG
modifications: internal dye-dT
[2]; 3-nt CAG loop in strand 1
  binding result: binds

B3: 70 bp (CAG)2 loop DNA (FRET) (dsDNA)
DNA 1: CACACGTTCCGAGATATCCTAGCAAGTGATCAGCAGCGTCTATGTAGCTCAAGAGTTCGACTCAGCCTACACCGAG
DNA 2: B2 DNA 2
modifications: internal dye-dT
[2]; 6-nt (CAG)2 loop in strand 1
  binding result: binds

B4: 70 bp (CAG)4 loop DNA (FRET) (dsDNA)
DNA 1: CACACGTTCCGAGATATCCTAGCAAGTGATCAGCAGCAGCAGCGTCTATGTAGCTCAAGAGTTCGACTCAGCCTACACCGAG
DNA 2: B2 DNA 2
modifications: internal dye-dT
[2]; 12-nt (CAG)4 loop in strand 1
  binding result: binds

B5: 61 bp (CAG)2 loop DNA, biotinylated (SPR) (dsDNA)
DNA 1: CTGAAGCTTAGCTTAGGATCATCGAGGATCCAGCAGAGCTCGGTGCAATTCAGCGGTACCCAATTC
DNA 2: B1 DNA 2
[3]
  Kd: 0.265 nM
[4]
  Kd: 0.0672 nM
